Assay results as given in doi:10.1101/2022.10.14.512051 (bioRxiv, 2022).

B1: Alexa-labeled LIS1 (biotinylated StrepII-Avi-LIS1 with Alexa488-coupled streptavidin) (natural protein, human, UniProt P43034 1-410, looked up)
chain: MVLSQRQRDELNRAIADYLRSNGYEEAYSVFKKEAELDVNEELDKKYAGLLEKKWTSVIRLQKKVMELESKLNEAKEEFTSGGPLGQKRDPKEWIPRPPEKYALSGHRSPVTRVIFHPVFSVMVSASEDATIKVWDYETGDFERTLKGHTDSVQDISFDHSGKLLASCSADMTIKLWDFQGFECIRTMHGHDHNVSSVAIMPNGDHIVSASRDKTIKMWEVQTGYCVKTFTGHREWVRMVRPNQDGTLIASCSNDQTVRVWVVATKECKAELREHEHVVECISWAPESSYSSISEATGSETKKSGKPGPFLLSGSRDKTIKMWDVSTGMCLMTLVGHDNWVRGVLFHSGGKFILSCADDKTLRVWDYKNKRCMKTLNAHEHFVTSLDFHKTAPYVVTGSVDQTVKVWECR
modifications: biotin on the Avi tag
B2: Alexa-labeled WDR1 (biotinylated StrepII-Avi-WDR1 with Alexa488-coupled streptavidin) (natural protein, human, UniProt O75083 1-606, looked up)
chain: MPYEIKKVFASLPQVERGVSKIIGGDPKGNNFLYTNGKCVILRNIDNPALADIYTEHAHQVVVAKYAPSGFYIASGDVSGKLRIWDTTQKEHLLKYEYQPFAGKIKDIAWTEDSKRIAVVGEGREKFGAVFLWDSGSSVGEITGHNKVINSVDIKQSRPYRLATGSDDNCAAFFEGPPFKFKFTIGDHSRFVNCVRFSPDGNRFATASADGQIYIYDGKTGEKVCALGGSKAHDGGIYAISWSPDSTHLLSASGDKTSKIWDVSVNSVVSTFPMGSTVLDQQLGCLWQKDHLLSVSLSGYINYLDRNNPSKPLHVIKGHSKSIQCLTVHKNGGKSYIYSGSHDGHINYWDSETGENDSFAGKGHTNQVSRMTVDESGQLISCSMDDTVRYTSLMLRDYSGQGVVKLDVQPKCVAVGPGGYAVVVCIGQIVLLKDQRKCFSIDNPGYEPEVVAVHPGGDTVAIGGVDGNVRLYSILGTTLKDEGKLLEAKGPVTDVAYSHDGAFLAVCDASKVVTVFSVADGYSENNVFYGHHAKIVCLAWSPDNEHFASGGMDMMVYVWTLSDPETRVKIQDAHRLHHVSSLAWLDEHTLVTTSHDASVKEWTITY
modifications: biotin on the Avi tag

Columns and labels:
His-DDB1 (recombinant) = His-DDB1 (recombinant) (human, UniProt Q16531 1-1140); assay: fluorescence polarisation
[1] = target: CRL4A complex (CUL4A, DDB1, RBX1) (human | , UniProt Q13619 1-759; Q16531 1-1140; P62877 1-108); assay: fluorescence polarisation
Sequence of CRL4A complex (CUL4A, DDB1, RBX1) (Q13619 whole entry, chain 1 of 3): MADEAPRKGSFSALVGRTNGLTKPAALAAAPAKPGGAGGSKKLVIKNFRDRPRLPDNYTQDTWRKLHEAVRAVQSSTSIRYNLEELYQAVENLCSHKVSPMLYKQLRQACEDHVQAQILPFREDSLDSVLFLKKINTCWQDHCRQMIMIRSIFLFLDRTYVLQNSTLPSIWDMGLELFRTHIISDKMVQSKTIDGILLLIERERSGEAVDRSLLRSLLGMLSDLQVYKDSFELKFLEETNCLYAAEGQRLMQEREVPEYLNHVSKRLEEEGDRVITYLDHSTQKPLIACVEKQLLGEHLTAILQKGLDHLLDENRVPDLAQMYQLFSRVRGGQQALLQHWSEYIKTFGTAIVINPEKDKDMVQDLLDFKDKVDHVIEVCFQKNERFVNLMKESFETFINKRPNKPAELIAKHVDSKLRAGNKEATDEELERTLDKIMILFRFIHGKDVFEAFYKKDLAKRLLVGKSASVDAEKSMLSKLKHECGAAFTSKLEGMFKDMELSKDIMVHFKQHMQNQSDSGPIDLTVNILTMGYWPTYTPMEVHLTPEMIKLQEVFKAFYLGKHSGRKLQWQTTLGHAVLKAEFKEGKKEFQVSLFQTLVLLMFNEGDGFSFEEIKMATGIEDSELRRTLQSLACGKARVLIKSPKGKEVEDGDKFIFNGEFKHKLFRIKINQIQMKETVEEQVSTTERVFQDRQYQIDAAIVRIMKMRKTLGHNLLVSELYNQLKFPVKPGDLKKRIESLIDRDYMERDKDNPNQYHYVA
Sequence of CRL4A complex (CUL4A, DDB1, RBX1) (Q16531 whole entry, chain 2 of 3): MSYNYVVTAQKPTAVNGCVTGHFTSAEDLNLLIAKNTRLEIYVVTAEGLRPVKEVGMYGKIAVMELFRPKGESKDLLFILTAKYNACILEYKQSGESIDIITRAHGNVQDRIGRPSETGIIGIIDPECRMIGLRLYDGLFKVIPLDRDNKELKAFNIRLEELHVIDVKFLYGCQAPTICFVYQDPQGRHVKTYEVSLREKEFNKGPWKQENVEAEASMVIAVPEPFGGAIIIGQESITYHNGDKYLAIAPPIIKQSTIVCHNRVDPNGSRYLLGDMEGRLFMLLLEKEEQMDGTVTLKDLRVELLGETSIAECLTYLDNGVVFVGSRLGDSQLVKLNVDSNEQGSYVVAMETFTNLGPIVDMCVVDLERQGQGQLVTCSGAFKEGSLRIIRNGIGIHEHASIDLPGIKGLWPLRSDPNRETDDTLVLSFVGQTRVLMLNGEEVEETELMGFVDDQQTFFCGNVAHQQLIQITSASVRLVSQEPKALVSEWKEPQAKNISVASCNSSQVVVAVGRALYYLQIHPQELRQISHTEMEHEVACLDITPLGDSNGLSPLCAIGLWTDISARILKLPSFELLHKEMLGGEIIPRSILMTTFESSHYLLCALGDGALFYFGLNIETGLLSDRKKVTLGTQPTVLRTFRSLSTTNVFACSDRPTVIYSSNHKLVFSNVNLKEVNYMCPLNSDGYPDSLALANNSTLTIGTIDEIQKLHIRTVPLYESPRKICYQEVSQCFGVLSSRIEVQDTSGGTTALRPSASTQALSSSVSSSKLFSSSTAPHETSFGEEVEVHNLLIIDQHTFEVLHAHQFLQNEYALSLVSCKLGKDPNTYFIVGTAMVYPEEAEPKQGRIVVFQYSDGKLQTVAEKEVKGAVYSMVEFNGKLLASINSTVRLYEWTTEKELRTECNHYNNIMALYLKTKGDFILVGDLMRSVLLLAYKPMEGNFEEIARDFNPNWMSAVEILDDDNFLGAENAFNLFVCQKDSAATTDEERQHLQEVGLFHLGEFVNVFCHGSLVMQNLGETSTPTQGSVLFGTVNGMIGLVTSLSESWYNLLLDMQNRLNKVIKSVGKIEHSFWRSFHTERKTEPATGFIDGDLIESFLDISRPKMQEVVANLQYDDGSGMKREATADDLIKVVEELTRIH
Sequence of CRL4A complex (CUL4A, DDB1, RBX1) (P62877 whole entry, chain 3 of 3): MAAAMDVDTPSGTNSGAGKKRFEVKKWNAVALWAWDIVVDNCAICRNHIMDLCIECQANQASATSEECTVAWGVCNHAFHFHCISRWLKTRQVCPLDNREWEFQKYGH

Sequence of His-DDB1 (recombinant) (Q16531 whole entry): as the sequence (Q16531 whole entry, chain 2 of 3) above

| Binder | Kd (His-DDB1 (recombinant)) [µM] | Kd [1] [µM] |
| --- | --- | --- |
| B1 | ~5 | ~13 |
| B2 | ~5 | ~13 |
